Here are results for one molecule from patent US20140120557A1 (published 2014).

The Kd is the concentration at which binding is half-saturated. Read a high Kd as lower affinity.

The assay addresses T1, 5C.C7 TCR (as measured by surface plasmon resonance) (mouse).
T1 construct: Kept apart from the TCR on cells because the SPR construct is not described
Put plainly: SPR.

B1: MCC-I-Ek (peptide-MHC)
chain 1: ANERADLIAYLKQATK
chain 2: IKEEHTIIQAEFYLLPDKRGEFMFDFDGDEIFHVDIEKSETIWRLEEFAKFASFEAQGALANIAVDKANLDVMKERSNNTPDANVAPEVTVLSRSPVNLGEPNILICFIDKFSPPVVNVTWLRNGRPVTEGVSETVFLPRDDHLFRKFHYLTFLPSTDDFYDCEVDHWGLEEPLRKHWEFEEKTLLPETKE
chain 3: VRDSRPWFLEYCKSECHFYNGTQRVRLLVRYFYNLEENLRFDSDVGEFRAVTELGRPDAENWNSQPEFLEQKRAEVDTVCRHNYEIFDNFLVPRRVEPTVTVYPTKTQPLEHHNLLVCSVSDFYPGNIEVRWFRNGKEEKTGIVSTGLVRNGDWTFQTLVMLETVPQSGEVYTCQVEHPSLTDPVTVEWKAQSTSAQNK
As to B1, the Kd was 22.9 µM and the t1/2 was determined as 5.77 s.
